The results in this text go back to patent publication US20240199740A1.

Assay [1] deals with cynomolgus TCR/CD3 expressed on cells (cynomolgus). Description: cell-based or functional assay.
Assay [2] deals with recombinant human CD123 protein (R&D Systems, 301-R3/CF) (human) (UniProt P26951). As to the kind of experiment: ELISA, antibody 7G3 coated at 1 µg/ml, in house biotinylated recombinant CD123 titrated (concentration axis taken as CD123 per paragraph 750). (In an ELISA, binding on a coated surface is turned into a signal by an enzyme label.)
Chain of recombinant human CD123 protein (R&D Systems, 301-R3/CF) (human) (P26951 19-305): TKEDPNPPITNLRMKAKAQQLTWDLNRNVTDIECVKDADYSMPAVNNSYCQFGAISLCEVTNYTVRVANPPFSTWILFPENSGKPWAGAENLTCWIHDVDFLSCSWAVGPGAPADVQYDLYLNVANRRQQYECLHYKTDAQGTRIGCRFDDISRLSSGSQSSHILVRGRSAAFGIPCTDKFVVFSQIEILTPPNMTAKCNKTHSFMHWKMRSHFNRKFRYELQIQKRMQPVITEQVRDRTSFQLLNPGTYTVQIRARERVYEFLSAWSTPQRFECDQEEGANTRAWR
Assay [3] has the same target. As to the kind of experiment: competition ELISA, coated antibody 7G3, 4 nM biotinylated recombinant CD123, antibody 7G3 in solution titrated.

B1: T017000135 (bispecific antibody)
chain: DVQLVESGGGLVQAGGPLRLSCAASGRTFSSYVMGWFRQAPGKEREFVAAIYWSNGKTQYTDSVKGRFTISGDNAKNTVYLQMNSLNPEDTAVYYCVADKDETGFRTLPIAYDYWGQGTLVTVSSGGGGSGGGGSGGGGSGGGGSGGGGSGGGGSGGGGSEVQLVESGGGLVQPGGSLRLSCVASGDVHKINFLGWYRQAPGKEREKVAHISIGDQTDYADSAKGRFTISRDESKNMVYLQMNSLKPEDTAVYFCRAFSRIYPYDYWGQGTLVTVSSGGGGSGGGGSGGGGSGGGGSGGGGSGGGGSGGGGSEVQLVESGGGLVQAGGSLRLSCAASGITSKINDMGWYRQTPGNYREWVASITATGTTNYRDSVKGRFTISRDNAKSTVYLQMNSLKPEDTTVYYCNTFPPISNFWGQGTLVTVSSA
In assay [1], B1 had a % lysis, redirected cyno T cell mediated killing of KG1a cells, flow cytometry of 22% and an EC50 (M), redirected cyno T cell mediated killing of KG1a cells, flow cytometry of 2.4e-11 M.

B2: mouse monoclonal anti-CD123 antibody (clone 7G3) (antibody, from another filing, V domains shown)
VH: EVQLQQSGPELVKPGASVKMSCKASGYTFTDYYMKWVKQSHGKSLEWIGDIIPSNGATFYNQKFKGKATLTVDRSSSTAYMHLNSLTSEDSAVYYCTRSHLLRASWFAYWGQGTLVTVSA
VL: DFVMTQSPSSLTVTAGEKVTMSCKSSQSLLNSGNQKNYLTWYLQKPGQPPKLLIYWASTRESGVPDRFTGSGSGTDFTLTISSVQAEDLAVYYCQNDYSYPYTFGGGTKLEIK
One may read the EC50 (read off the curve) as the concentration needed to bring the measured effect to its halfway point. For B2, the EC50 (read off the curve) in assay [2] is 10 nM. Moreover, the IC50 (read off the curve) in assay [3] came to 2 nM.
